Legend:
[1] = target: actin filaments of rabbit skeletal muscle actin (rabbit) (UniProt P68135); test: co-sedimentation
[2] = target: microtubules of rat brain tubulin (rat) (UniProt P68370); test: co-sedimentation

| percent of total 255-kD protein sedimented [1] [%] | percent of total axolinin sedimented [2] [%] | Substance |
| --- | --- | --- |
| 62 | – | 255-kD protein of squid giant axon (natural protein) |
| – | 70 | axolinin (260-kD protein) of squid giant axon (natural protein) |

Source: PMC2114230
